Substitutions are numbered along the chain they refer to. Where two headings read alike, the source gives them in different places.
Experiments:
[1] = target: T1, Biotinylated SARS-CoV-2 S1 protein (ACRO, S1N-C82E8) (UniProt P0DTC2 16-685); experiment: BLI
[2] = target: T1, Biotinylated SARS-CoV-2 S1 protein …; experiment: BLI; remark: listed apart in the source

B1: Ab 15 scFv-Fc (scFv, V domains shown)
VH: QVQLVQSGGGLVKPGRSLRLSCTASGFTFGDYAMSWFRQAPGKGLEWVGFIRSKAYGGTTGYAASVKGRFTISRDDSKSIAYLQMNSLKTEDTAVYYCTTADDDMDVWGKGTTVTVSS
VL: NFMLTQPHSVSESPGKTVTISCTRSSGTIASNYVQWYQQRPGSAPTTVIYEDNQRPSGVPDRFSGSIDRSSNSASLTISGLTPDDEADYYCQSYDTSNHYVFGTGTKVTVL
[1]
  Kd: 0.033 nM
[2]
  Kd: 0.033 nM

B2: Ab_13 (scFv, V domains shown)
VH: QVTLKESGPKLVKPTQTLTLTCTFSGFSLSTSGVGVGWIRQPPGKALEWLALIYWDDDKRYSPSLKSRLTIAKDTSKYQVVLTMTNMDPVDTATYYCARISGSGYFYPFDIWGQGTMVTVSA
VL: B1 VL with T28S, R69S, T82K, P83T, D84E, T96S, H99L, Y100W, T104G, V108L
[1]
  Kd: 1.14 nM
[2]
  Kd: 1.14 nM

B3: Ab 27 scFv-Fc (scFv, V domains shown)
VH: QVQLVQSGTEVKKPGASVKVSCKASGYSFTGSHLHWVRQAPGQGLEWMGWINPDSGVINYAQKFQGRVTLTRDTSISTAYMELSGLRSDDTAVYYCARDKAIGYVWALDYWGQGTLVTVSS
VL: QSALTQPPSVSGSPGQSVTISCTGTSSDVGTYNRVSWYQQPPGKAPKLMIYEVSNRPSGVSNRFSGSKSGNTASLTISGLQAEDEADYYCSSYTRTFTYVFGTGTKVTVL
[1]
  Kd: < 0.001 nM
[2]
  Kd: < 0.001 nM

B4: RBD-R3-E1-B3 Ab (Ab_32) (scFv, V domains shown)
VH: QVQLVQSGAEVKKPGESLKISCKGSGYSFTSYWIGWVRQMPGKGLEWMGIIYPGDSDTRYSPSFQGQVTISADKSISTAYLQWSSLKASDTAMYYCARGWQWHDYWGQGTLVTVSS
VL: QTVVTQEPAVSVALGQTVRITCQGDSLRSYYASWYQQKPGQAPVLVVYDKDKRPSGIPDRFSGSTSGNTASLTITGAQAEDEADYYCNSRDRSDNHVVFGGGTKLTVL
[1]
  Kd: 0.168 nM

B5: Ab 25 scFv-Fc (scFv, V domains shown)
VH: QVQLVQSGGGLVQPGGSLRLSCAASGFTFSSYWMSWVRQAPGKGLEWVANIKQDGSEKYYVDSVKGRFTISRDNAKNSLYLQMNSLRAEDTAVYYCARGFYYYGAFDIWGQGTTVTVSS
VL: NFMLTQPHSVSESPGKTVTISCTGSSGSIASNYVQWYQQRPGSAPTTVIYEDNQRPSGVPDRFSGSIGSSSNSASLTISGLKTEDEADYYCQSYDSSNHWVFGGGTKLTVL
[1]
  Kd: 10.1 nM
[2]
  Kd: 10.1 nM

B6: S1-RBD-R3-T1-B12 Ab (Ab_31) (scFv, V domains shown)
VH: QVQLVQSGAEVKKPGSSVKVSCKASGGTFSSYTISWVRQAPGQGLEWMGGIIPILGTPNYAQKFQDRVAITADKSTSTAYMELSSLRSEDTAVYYCAVGSGWYSGFDYWGQGTLVTVSS
VL: B5 VL with N53S, G68D, Y94F, D95H, S96N, H99P, W100V, V101I
[1]
  Kd: 2040 nM

B7: Ab 20 (scFv, V domains shown)
VH: QVQLVQSGGGSVKPGGSLRLSCAASGYRLSDYYMHWVRQAPGKGLEWVANIKQDGSEKYYVDSVKGRFTISRDNAKNSLYLQMNSLRAEDTAVYYCARVRGWSRGYFDYWGQGTLVTVSS
VL: B5 VL with G68D, T77L
[1]
  Kd: 5.01 nM
[2]
  Kd: 5.01 nM

B8: Ab 26 scFv-Fc (scFv, V domains shown)
VH: QVQLVQSGGGLVQPGRSLRLSCAASGFTFDDYAMHWVRQVPGKGLEWVSGIDWNSGVIGYADSVKGRFTISRDNAKNSLYLQMNSLRAEDTALYYCAKDAYSYGFLGAFDIWGQGTMVTVSS
VL: LPVLTQPPSVSVAPGQTASITCGGDNIRTKGVHWYQQKPGQAPLLVIYYASDRPSGIPERFSGSSSGNTATLTISRVEAGDEADYYCQVWDSSSDLVVFGGGTTLTVL
[1]
  Kd: 0.0875 nM
[2]
  Kd: 0.0875 nM

B9: S1-R3-T1-C4 (Ab_8) (scFv, V domains shown)
VH: QVQLVQSGAEVKKPGSSVKVSCKASGGTFSSYAISWLRQAPGQGLEWMGWINPNSGGTNYAQKFQGRVTMTRDTSISTAYMELSRLRSDDTAVYYCARGSGGYYLGWGQGTLVTVSS
VL: QPGLTQPPSVSKGLRQTATLTCTGNSNNVGNQGAAWLQQHQGHPPKLLSYMNNNRPPGISERFSASRSGNTASLTITGLQPEDEADYYCSAWDSSLSRWVFGGGTKLSVL
[1]
  Kd: 325 nM

B10: Ab 19 scFv-Fc (scFv, V domains shown)
VH: EVQLVESGAEVKKPGESLKISCKGSGYSFTSYWIGWVRQMPGKGLEWMGIIYPGDSDTRYSPSFQGQVTISADKSISTAYLQWSSLKASDTAMYYCARRGDLDAFDIWGQGTMVTVSS
VL: QPGLTQPPAASGTPGQRVTVSCSGASANIGSNAVSWFKQFPETAPRLLISGNTHRPSGVPDRVSGSKSGTSASLTISGLQSDDEADYYCAAWDDSLNGYVFGSGTKVTVL
[1]
  Kd: 0.13 nM
[2]
  Kd: 0.13 nM

B11: Ab 14 scFv-Fc (scFv, V domains shown)
VH: QVQLQQSGPGLVKPSQTLSLTCAISGDSVSSNSAAWNWIRQSPARGLEWLGRTYYRSRWYNDYAISMKSRITINPDTSKNQFSLQLESVTPEDTAVYYCAREIRGFDYWGQGTLVTVSS
VL: QSVLTQPPSASGSPGQSVTISCTGTSSDVGAYNFVSWYQHHPGKAPKLIIYDFNKRPSGVPDRFSGSKSGNTASLTVSGLQADDEADYYCSSYAGSNNFDVVFGGGTKLTVL
[1]
  Kd: 0.594 nM
[2]
  Kd: 0.594 nM

B12: S1-RBD-R3-T1-C7 Ab (Ab 29) (scFv, V domains shown)
VH: QVQLQQSGPGLVKPSQTLSLTCAISGDSVSSYSDAWNWIRQSPSRGLEWLGRTYYRSKWYNDYAVSVKSRITINPDTSKNQFSLQLSSVTPEDTAVYYCAREIVATTPFRNYYYGMDVWGQGTTVTVSS
VL: NFMLTQPHSVSESPGNTVTISCTRTSGSIASNYVQWYQQRPGSSPTTVIFQDKLRPSGVPDRFSGSIDSSSNSASLTISGLKTEDEADYYCQSYDSSSLWVFGGGTKLTVL
[1]
  Kd: < 0.001 nM

B13: Ab 21 (scFv, V domains shown)
VH: QVQLVQSGGGLVQPGGSLRLSCATSGFTFDDYAMHWVRQAPGKGLEWVSGISWNSGSIGYVDSVKGRFTISRDNRNNKVYLQMNNLRAEDTAVYYCARDWWGSIDHWGLGTLVTVSS
VL: QSALTQPRSVSGSPGQSVTISCTGTSSDVGGYDYVSWYQQHPGKAPKLIIYDVSKRPSGVPDRFSGSKSGNTASLTVSGLQAEDEADYYCSSYTSSSPVVFGGGTKLTVL
[1]
  Kd: 1.28 nM
[2]
  Kd: 1.28 nM

B14: Ab 38 (scFv, V domains shown)
VH: QVTLKESGPTLVKPTQTLTLTCTFSGFSLTTSGVSVGWIRQPPGKALEWLALIHWDDDKRYSPSLRSRLTITRDTSKNQVVLTVTDMDPADTGTYYCASFIMTVYAEYFEDWGQGTLVTVSS
VL: EIVLTQSPATLSVSPGERATLSCRASQSVSSNLAWYQQKPGQAPRLLMYDVSTRATGIPARFSGSGSGTEFSLTISSLQSEDFAVYYCQQRGAWPLTFGGGTKVEIK
[1]
  Kd: 0.22 nM

B15: Ab 30 scFv-Fc (RBD-R3-E1-A5) (scFv, V domains shown)
VH: QVQLVQSGGGVVQPGKSLRLSCTASGFTFSDFPIHWVRQAPGKGLEWVGVISYDGNIKYYGDSVKGRFTISRDNAKNSLYLQMNSLRVEDTAVYYCARGGSSFDIWGQGTTVTVSS
VL: SYELTQPPSVSEAPRQRVTISCSGSTSNIGNNAVSWYQHLPGKAPKLLIYYNERLPSGVSDRFSGSKSGTSASLAISGLRSEDEADYYCAAWDDSLSGHVVFGGGTKLTVL
[1]
  Kd: 0.314 nM

B16: S1-RBD-R3-T1-D7 Ab (Ab_34) (scFv, V domains shown)
VH: QVQLVQSGVEVKKPGESLKISCKGSGYSFTSYWIGWVRQMPGKGLEWMGIIYPGDSDTRYSPSFQGQVTISADKSISTAYLQWSSLKASDTAMYYCARTTYSYGSFDYWGQGTLVTVSS
VL: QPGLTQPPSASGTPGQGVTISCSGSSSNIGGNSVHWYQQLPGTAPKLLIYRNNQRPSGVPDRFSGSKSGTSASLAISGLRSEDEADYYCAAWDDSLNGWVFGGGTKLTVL
[1]
  Kd: 0.184 nM

B17: Ab_16 (scFv, V domains shown)
VH: QVQLVQSGGGVVQPGRSLRLSCAASGFTFSNYGMHWVRQAPGKGLEWVALIWERGSKKDYADSVKGRFTVSRDNSKNTLYLQMNSLRPEDTAVYFCAREGISMTGAEYFQHWGQGTLVTVSS
VL: QSVLTQPPSVSGSPGQRVTMSCTGSSSNIGAGYDVHWYQQVPGAAPRLLIYGTNNRPSGVPDRFSGSKSGTSASLTITGLQAEDEADYYCQSYDNSLTDPYVFGTGTKVTVL
[1]
  Kd: 2.18 nM
[2]
  Kd: 2.18 nM

B18: S1-RBD-R3-E1-E8 Ab (Ab 37) (scFv, V domains shown)
VH: QVQLVQSGAEVKKPGASVKVSCKASGYTFTSYGISWVRQAPGQGLEWMGWISTYNGNTNYAQKLQGRVTMTTDTSTSTAYMEVRSLRSDDTAVYYCARDVFGHFDYWGQGTLVTVSS
VL: NFMLTQPHSVSESPGKTVLISCTRSSGNIATNYVQWYQQRPGSAPTTVIYEDNQRPSGVPDRFSGSIDSSSNSASLTISGLKTEDEADYYCKSYDDGNHVFGGGTKLTVL
[1]
  Kd: 0.907 nM

B19: RBD-R3-T1-H3 (Ab_2) (scFv, V domains shown)
VH: EVQLVQSGAEVKKPGSSVKVSCKTSGYTFTTSGISWVRQAPGQGLEWMGWISAYNGNTNYAQKLQGRVTMTTDTSTSTAYMELRSLRSDDTAVYYCARDFHLYYGMDVWGKGTLVTVSS
VL: QSALTQPPSASGSPGQSVTISCTGTSSDVGAYNYVSWYQQHPGKAPKLLIYDVTKRPPGVPDRFSGSKSGNTASLTVSGLQAEDEADYYCAVWDDGLNGRVVFGGGTKLTVL
[1]
  Kd: < 0.001 nM

B20: RBD-R3-E1-F5 Ab (Ab_36) (scFv, V domains shown)
VH: QVQLQQSGPGLVKPSQTLSLTCAIFGDSVTSNSAAWNWIRQSPSRGLEWLGRTYYSSKWYNDYAVSVKSRVTINADTSKNQLSLQLNSVTPEDTAVYYCARGWLRLSFDPWGQGTLVTVSS
VL: NFMLTQPHSVSESPGKTVTISCTGSSGSIASNYVQWLQQRLGSAPTTVIYEDNQRPSGVPDRFSGSIDSSSNSASLTISGLKTEDEADYYCQSYDPNNHGVVFGGGTKLTVL
[1]
  Kd: 0.0306 nM

B21: Ab_18 (scFv, V domains shown)
VH: EVQLVQSGGGVVQPGRSLRVSCAASGFSFSRYGMHWVRQAPGKGLEWVAFIRHDGSKKYYADSVEGRFTISRDNSRNTVSLEMNSLRGEDTAVYYCAKDGRLEAALDDWGQGTLVTVSS
VL: NFMLTQPHSMSGSAGKTVTVSCIRSSGSIANNFVQWYQQRPGSAPTTVIYEDNQRPSGVPDRFSGSIDSSSNSASLTISGLKTEDEADYYCQSYDSSNLVFGGGTRLTVL
[1]
  Kd: 0.121 nM
[2]
  Kd: 0.121 nM

Source: patent US20230374114A1 (published 2023)
